The source of these data is PMC3763534.

Holding throughout (conditions): 20 mM Hepes pH 7.5, 100 mM KAc, 200 mM KCl, 3 mM MgCl2, 1 mM TCEP; 37 C, 20 min; RNA folded in 20 mM Hepes pH 7.5, 150 mM KCl, 5 mM MgCl2
In data set [1] the test system is 40S ribosomal subunit (HeLa or RRL, used interchangeably);eIF3 (preparation not specified) (Homo sapiens or rabbit;Homo sapiens?). The experiment in a line: filter binding.
The test system of data set [2] is eIF3 (preparation not specified). Nature of the data set: filter binding.
The subject of data set [3] is 40S ribosomal subunit (HeLa or RRL, used interchangeably) (Homo sapiens or rabbit). Nature of the data set: filter binding.
Data set [4] deals with 80S ribosome. The experiment in a line: EMSA. (Mobility shift assays separate free from complexed probe on a gel.)
Data set [5] relates to 40S ribosomal subunit (HeLa) (Homo sapiens (HeLa)). Nature of the data set: EMSA.
The subject of data set [6] is 40S ribosomal subunit (RRL) (rabbit (reticulocyte lysate)). Nature of the data set: EMSA.
Data set [7] deals with 40S ribosomal subunit (HeLa or RRL, used interchangeably) (Homo sapiens or rabbit). Nature of the data set: EMSA.

HCV 3'UTR: the Kd – broadly, a measure of binding affinity in units of concentration – in data set [1] came out at 1 nM; in data set [2] it was 8.9 nM; in data set [3], 1.8 nM; in data set [4], 11.8 nM; in data set [5] it was 1.8 nM; in data set [6] it was 5.4 nM.
Consider HCV 3'UTR genotype 3a, for which the Kd in data set [7] is 3.7 nM.
“UAGACGAGCGGCCCUAAACAACACUCCAUAACAUUUUUUUUUUUUUUUUUUUUUUUUUUUUUUUUUUUUUUUUUUUUUUUUUUUUUUUUUUUUUUUCUUUCUUAUCUGUCUAUCCCUUAGACUCCUUCUUUGGUGGCUCCAUCUUAGCCCUAGUCACGGCUAGCUGUGAAAGGUCCGUGAGCCGCAUGACUGCAGAGAGUGCUGAUACUGGCCUCUCUGCAGUUCAUGU [HCV 3'UTR genotype 6b]” showed a dissociation constant Kd in data set [7] of 6.7 nM.
On the same count and under the same terms, as for HCV 3'UTR genotype 1b, the figure is 4.7 nM; as for “AGGUUGGGGUAAACACUCCGGCCUCUUAAGCCAUUUCCUGUUUUUUUUUUUUUUUUUUUUUUUUUUUUCUUUUUUUUUUUCUUUCCUUUCCUUCUUUUUUUCCUUUCUUUUUCCCUUCUUUAAUGGUGGCUCCAUCUUAGCCCUAGUCACGGCUAGCUGUGAAAGGUCCGUGAGCCGCAUGACUGCAGAGAGUGCUGAUACUGGCCUCUCUGCAGAUCAUGU [HCV 3'UTR genotype 1a]”, 6.7 nM.
Consider HCV 3'UTR genotype 2a, for which, in data set [7], the dissociation constant Kd amounted to 3.5 nM.
